Measured values: article PMC10193809, “A small protein coded within the mitochondrial canonical gene nd4 regulates mitochondrial bioenergetics” (BMC Biology, 2023)

Target: the molecule itself
Experiment: cross-linking; 3 µg synthetic MTALTND4 in 20 µl PBS 1x with 0%, 0.5% or 1% paraformaldehyde, 30 °C, 10 min; tricine-SDS-PAGE, Coomassie stain

B1: MTALTND4 (mitochondrial alternative ND4 protein), complete synthetic peptide (peptide)
chain: MRHNYNKLHLPTTNRPKIAHCMLFNQPHSPRSNSHSHPNPLKLHRRSHSHNRPRAYILITILPSKLKLRTHSQSHHNPLSRTSNSTPTNSFLMTSSKPR
notes: M.W. 11,532.06 g/mol as printed in the methods; also called MTALND4; synthetic MTALTND4; source: synthetic peptide (LifeTein; purity verified by HPLC by the supplier)
stoichiometry N: 2
